± gives the half width of the 95% confidence interval.
Tests used:
[1] = folding stability dG unfold from trypsin proteolysis; higher = more stable
Experimental: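 Folding stability of de novo designed mini-proteins (<80 aa, no Cys; designed by TrROS, TrMRF, ProteinMPNN and the joint model) was measured by cDNA display proteolysis with trypsin and chymotrypsin. Each protease was used at 11 concentrations in a threefold dilution series plus a no-protease condition. K50 was inferred by Bayesian fitting of sequencing counts, and dG unfold was derived against a sequence-predicted unfolded-state K50 (Tsuboyama et al. method). Sequences shown include variable-length N-terminal GS-type padding (SAGGSAGG...) inside a display construct carrying a PA tag. Rows were kept only if the AF2 dimer inter-PAE was >15, to exclude likely homo-oligomers.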

[2] = folding stability dG unfold (combined trypsin and chymotrypsin); higher = more stable
Procedure, shortened: (§1)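 Bayesian fitting of sequencing counts gave K50 for each design. Unfolding free energy followed by setting this against a sequence-predicted unfolded-state K50 and a shared folded-state K50, either per protease or with trypsin and chymotrypsin combined. The designs, under 80 residues and lacking cysteine, were digested in a PA-tagged cDNA display format at 11 threefold-diluted protease concentrations and without protease, and only those with AlphaFold2 dimer inter-PAE above 15 were kept.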

[3] = folding stability dG unfold from chymotrypsin proteolysis; higher = more stable
Procedure, shortened: as §1

Row | Sequence | folding stability dG unfold [1] [kcal/mol] | folding stability dG unfold [2] [kcal/mol] | folding stability dG unfold [3] [kcal/mol]
1 | SAGGSAGGSAGGMVLKTETRPGFEGGRAWTVTTTVYPDSVVVTTTPPDGVPTTTTIPPSSSAGGSAGGSAGG [r7_516_JUSTAS] | -0.221 ± 0.24 | – | –
2 | SAGGSAGGSAGGKVTVEKDKETGKYTVKIVNKKTKKEITVTVPAKDKEKALKKAKELAKSAGGSAGGSAGGS [r10_1117_TrROS_Hall] | -0.349 ± 0.35 | – | –
3 | SAGGSAGGSAGKRKIIFQVDNPEDMLDEIKIPPGGEVKIENIEIQPQPNGRHWAVFEIKDSAGGSAGGSAGG [r11_150_TrROS] | -0.398 ± 0.4 | – | –
4 | SAGGSAGGSAGKTIPIDEEEAKALFKAGNPRTITRLLPDGKTETLTYQPETNEVSVLDPKAPSAGGSAGGSA [r18_400_JUSTAS] | -0.795 ± 0.61 | – | –
5 | SAGSMKTEEKTEEVPPVTLPFGPSVRVRRVTTTITDPSTGKIKEVTVELFDPAGRRRVDPVKKVPVELLSAG [r14_631_JUSTAS] | 0.794 ± 0.13 | – | –
6 | SAYYKIRWNNGREIELKDMPIEDLEKYFPGGPVEIEPVPPVPVVRIESWEQANDLAEQNPPNHTIIVMDSAG [r14_445_TrROS] | – | -0.634 ± 0.56 | -0.476 ± 0.83
7 | SAGGSAGGSAGGGPPVERVTTETILRPDGTTTTTRKTTVVPPTDTVTTTTTTLTTTPVTSAGGSAGGSAGGS [r10_1139_JUSTAS] | – | 0.0441 ± 0.18 | 0.328 ± 0.067
8 | SAGGGAMLVGETTTSKWIEKTIRNENGEVETKKVKVTTKPVTYKLPDGTLATETKVTIIYPDGSTKEESAGG [r13_113_JUSTAS] | – | -0.181 ± 0.31 | 0.103 ± 0.21
9 | SAGGSAGGSAGGMTITVPVEGVEEAIEKAKKEHPNTEIKITLLKPGGEKATTRTVKILGSAGGSAGGSAGGS [r10_741_JUSTAS] | – | -0.951 ± 0.29 | -0.403 ± 0.13
10 | TLSPEEIEAEARARAEAAVAARPDSAADVELDVPVEFPVRTERRDPRSDRWSRSLSTVRLRLRLRLARGAGS [r1_90_JUSTAS] | – | -0.468 ± 0.24 | 0.343 ± 0.2
11 | SAGGSAGGSEKLEIVKAFVFENEVILIVKKEKEYYVLKLKFKDGKIESLEFIGPVPENDPSLGSAGGSAGGS [r12_154_TrMRF] | – | 5.27 ± 0.48 | 4.92 ± 0.16
12 | SALDPAAGTVTATVTRPVTLPDGRTVPVTRPVRVPVTYDVVVRDPETGEVVRAADYDPETGRLRDASAASAG [r14_122_TrMRF] | – | < -1 | 0.548 ± 0.37
13 | SAGRRSLVLLAPVDDPARAPTAEELARELLALGGTPATRPRAEPLEDDTLRVTFEAPGVDVTVLVDLRASAG [r5_144_TrMRF] | – | 0.138 ± 0.11 | 0.638 ± 0.12
14 | SAGEGSRSPGVVLHVTTPTEPLVVREPVAPDEDPEAVLERLAAEVRAALGPDTTVSGEVLSPAELARAASAG [r5_583_JUSTAS] | – | -0.738 ± 0.23 | -0.465 ± 0.18
15 | SAGMKIKVTIERGGDRAERILPPEEAKALLDKYPEDGEIPLDLEGEEVTVKIEKTPPALPTEEAIKELKSAG [r5_669_JUSTAS] | – | < -1 | 0.11 ± 0.4
16 | SAGGSAGGSAGEAASSLKLPPVTLTTPPVPVELPPGLTVESVEPVRTPSGETILVVNLVRSAGGSAGGSAGG [r11_388_JUSTAS] | – | -0.349 ± 0.19 | 0.279 ± 0.13
17 | SAGGSAGGALTPTDEVTLTLPDGTVRPGRVEVLPDNVVRVRLEGSEVLLTRDPEGDEVTVERVASAGGSAGG [r6_68_JUSTAS] | – | 0.503 ± 0.047 | 0.964 ± 0.011
18 | SAGMTPEDLKNGKPVKVPIPIPIRDPDGKPWAEIPIKGPMPVKDIMEVIETIREIARELKIPPSDGDKNSAG [r5_606_TrROS] | – | < -1 | -0.743 ± 0.53
19 | SAGGSAGGSAGGGSVTRLPDGVTTVVTFPDGSTVTVPAGVPYTDPNAATPVTVSPVPPALSAGGSAGGSAGG [r7_968_JUSTAS] | – | < -1 | 0.119 ± 0.1
20 | SAGGSAGGSAGGRIRLRTELLVRREDGSLSRFRETAVFEVEARPRPVPAPRAYRDANGRLVSAGGSAGGSAG [r3_252_TrMRF] | – | -0.558 ± 0.13 | 0.264 ± 0.075
21 | SAGGSAGGSAGGSMTVTETRYVGTDPATGVATTLSTYRDASGTPGLVTTYPGGAVTVALSAGGSAGGSAGGS [r4_35_JUSTAS] | – | -0.312 ± 0.28 | 0.0995 ± 0.26
22 | SAGGSAGGSAGGPEIKPFDSLEEVVEEIKKNPNKERIYLLPDSVIYTLKEDKILKIEPLKSAGGSAGGSAGG [r7_532_TrMRF] | – | < -1 | -0.105 ± 0.47
23 | SAGGSAGGSAGPMYKLKAELNNKPFEVMINPDMPPDDQIYIRDPGEWIEFNIENMKVEPVSAGGSAGGSAGG [r11_247_TrROS] | – | -0.0971 ± 0.14 | 0.298 ± 0.21
24 | SAGGSAGGSELITLTEKASLAVGELNLPSPEELAKKKYPDVKPKNITVSTKPGEGLVTVTVDGKSAGGSAGG [r6_81_JUSTAS] | – | -0.222 ± 0.19 | 0.207 ± 0.091

Row | Sequence | folding stability dG unfold [1] [kcal/mol] | folding stability dG unfold [2] [kcal/mol] | folding stability dG unfold [3] [kcal/mol]
25 | SAGGWVKDPDGQTVEMKVLDPGMNKDNAKPFADNIAEQLHRQHGMNPNNVKVKVETDPENGTVRVKVKSAGG [r13_913_TrROS] | – | < -1 | -0.385 ± 0.39
26 | SAGGAGQRVVLSSDKSLEDLEKLREENPDVSIEVTEINKLEPVKPENGGLEEVPSEIVAELTPGERRSAGGS [r8_172_JUSTAS] | – | -0.0394 ± 0.076 | 0.401 ± 0.051
27 | SPVAVVTYEDGSVSEVPFTHPDGRAYDLSRGPGDVATLTVTRLLPDGSLEPLPTVPFTSEAEAEAYLAAASA [r9_942_JUSTAS] | – | -0.231 ± 0.074 | 0.201 ± 0.12
28 | SAGGEEPKRKTVEVPAGQPISELLDALKQYDEVQIRMGNGEEHEIPPNDPPDLEDLPLPPGNTFEIEVSAGG [r13_399_TrROS] | – | < -1 | -0.126 ± 0.12
29 | SAGGSAGGSAGWNIEPKPEPERDPDGNPQPRMEIKIRVPPPTAEQAQEWAKENGLPVTVYSAGGSAGGSAGG [r17_114_TrROS] | – | < -1 | -0.0462 ± 0.17
30 | SAGSVSLPPGAVLTEERKLPDGSLVRTTTTVSPVPELPVDRIETTTEFYAPGGEKIGTETSSSLRPPGESAG [r5_787_JUSTAS] | – | -0.493 ± 0.35 | -0.0977 ± 0.13
31 | SAGAVSTFENSNPSISLEELKEKIEEKLGIELVELKKVEDVPGGLKYEIVVPKIKGEKPFSAEEIAKLLSAG [r5_550_JUSTAS] | – | -0.434 ± 0.56 | -0.0356 ± 0.5
32 | SAGGSAGGSAKRTIFIPAEDLQKNPDNAEELAQTIAEEFNDNGKEIKIEQHPDGGVVIELKSAGGSAGGSAG [r3_75_TrROS] | – | < -1 | -0.3 ± 0.1
33 | SAGGNLRIRIEMENKDGNKRKIPIPEEEFNRIKESLKNGKPITPEPASWISDYARRNGYDVKIVDIYSAGGS [r8_159_TrROS] | – | -0.35 ± 0.33 | -0.101 ± 0.36
34 | SAGGSTAEELADQIHKKFMEQGYKITDVDITYNPNNWVMVKATIRNPDDPNQRMKMNIMIPKDEIKSAGGSA [r2_384_TrROS] | – | 0.239 ± 0.29 | 0.649 ± 0.32
35 | SAGGSAMSLEELKKKKVKVKVKEIEVPKGAKIPDGKTVKEGEKILVVDGKVYLPNGKLIAEVEVEESAGGSA [r15_12_TrROS_Hall] | – | -0.629 ± 0.47 | -0.621 ± 0.22
36 | SAGGMLITEEDLAALLAAVPPERPDAVVTLTVGRLQRILPGSTGENEPIPSSVEPSVVTLPVTVPPASAGGS [r16_708_JUSTAS] | – | < -1 | -0.833 ± 0.24
37 | SAGGSAGGSDPTYVEVRTLAGPAGPTRVLIRPSSGEWLEAEFPVDRPVVFFVPADVEVEVLPDSAGGSAGGS [r12_517_TrMRF] | – | 0.0902 ± 0.054 | 0.498 ± 0.048
38 | SAGGSSYIVKATPAGGPSFEAEATLTSVSSEGDNFTANVEVTFDGKPVTLTFDGDKVGPVVIEPPESAGGSA [r2_319_TrMRF] | – | -0.0521 ± 0.17 | 0.558 ± 0.15
39 | SAGGSASMRTVTLTSTETLELKDPSGNLRVETTPVVVTVPVEVPDPNLPPPAVNSPVLTELLLRLLSAGGSA [r15_728_JUSTAS] | – | 0.0436 ± 0.084 | 0.413 ± 0.064
40 | SAGGSAGGSAGMETRLIAVLEDGEAVFEDGGTLITVPADEDVADIPDGGGLGTIYIPKDGSAGGSAGGSAGG [r11_647_TrMRF] | – | -0.0625 ± 0.17 | 0.53 ± 0.036
41 | SAGGSAGGSAPNIRAKIEPKPDPGGPKLTIDVEDPDNPELPAEEVAKALEEEFPPDKIEPVSAGGSAGGSAG [r3_226_TrROS] | – | < -1 | -0.7 ± 0.083
42 | SAGGSAGGSAGMVIPSTSPEEAVEKLRELVEKRGDFLVDVKPTEVHPDGTVVIETKKKPLSAGGSAGGSAGG [r17_430_JUSTAS] | – | -0.269 ± 0.21 | 0.21 ± 0.09
43 | SAGGSAGGGASTRRTITVPYEDPEEAFEKVKEEVKAETGKPTEVTLTEIDPNNPGVITVEVTVSSAGGSAGG [r6_211_JUSTAS] | – | 0.351 ± 0.07 | 0.938 ± 0.019
44 | SAGGSAGGSAGGDVNSPNIPPVLTVEPVEVLDPGGGGLRRRVVYVAPGGIVLETEERPESAGGSAGGSAGGS [r10_261_JUSTAS] | – | 0.156 ± 0.16 | 0.702 ± 0.12
45 | SAGGSAGGSAGGKDEKPKPLKVPVIVAPAPEYLELAKKLLPPDKAKVIEKKDDKVVIAFGSAGGSAGGSAGG [r7_670_TrMRF] | – | -0.533 ± 0.21 | -0.425 ± 0.32
46 | SAGGPNFMFRVKMPHPRPKKDPEDGKEKWRPQRHEHTVPFPADDPEQALDELADNMPPNNFKITDITSAGGS [r16_459_TrROS] | – | -0.0582 ± 0.18 | 0.45 ± 0.22
47 | SAGGSAGGSAMKLLETKVSRSLVPETGVVVTPVTTTTLGPGGKREVIEETEVRVLPPDAPPPSAGGSAGGSA [r18_95_JUSTAS] | – | < -1 | -0.625 ± 0.19
48 | SAGGKKVIIPFKSPEQVKDWLENAPPGHDKVEIFSPETGYMAEFEVDPKENKIKEIKWERFDPDDGMFSAGG [r13_945_TrROS] | – | -0.372 ± 0.46 | 0.0373 ± 0.28

Source: the supplement of paper PMC12764529
